Source: article PMC2585861 (The Journal of General Physiology, 2008)

Target: the molecule itself
Test: SEC

B1: KvLm-PM, pore module of KvLm (S4-S5 linker-S5-P-S6-C-terminus) (domain or fragment, Listeria monocytogenes, UniProt Q8Y5K1 98-247, looked up)
chain: RYIVPIYSFFRSNGLNRFLMIFVLLVIIIPVPMVFIEPEINNYPDALWWAIVTATTVGYGDIVPVTPIGRILASIMMLFGIAFIGMITSTITNFFRAKKPTNSSTQRANKITQLISETPDLTKEEIAVVEQFLTLRKKELADENTKSDSE
stoichiometry N: 4
